Assay [1] addresses T1, human MDR1 (multidrug resistance protein 1) (human, UniProt P08183 1-1280). The assay can be described thus: cell-based or functional assay.
Assay [2] deals with T2, cynomolgus MDR1 (Macaca fascicularis) (Macaca fascicularis (cynomolgus), UniProt P08183 1-1280 (human entry)).
T2 construct: also called cB1; cynomolgus ABCB1
The assay can be described thus: flow cytometry.

Assay [3] deals with T3, human CD47 (human, UniProt Q08722 19-323).
T3 construct: whole, on cells; Overexpressed on rat C6 cells, or endogenous on human tumour cell lines; also called KT14; hKT14
The assay can be described thus: binding to C6 cells expressing human CD47, figure legend.

Assay [4] concerns the target T1, human MDR1 (multidrug resistance …). The assay can be described thus: flow cytometry.
Assay [5] has as its target T2, cynomolgus MDR1 (Macaca fascicularis). The assay can be described thus: flow cytometry, 293T cells transfected with cynomolgus MDR1. Background: Flow cytometry measures light scatter and fluorescence of single cells or particles in a stream.
The target of assay [6] is T1, human MDR1 (multidrug resistance …). The assay can be described thus: flow cytometry, 293T cells overexpressing human MDR1.
Assay [7] shares this target. The assay can be described thus: binding to C6 cells overexpressing human ABCB1 (FIGS. 17A-17B).
Assay [8] concerns the target T3, human CD47. The assay can be described thus: binding to C6 cells overexpressing human CD47 (FIGS. 17A-17B).
Assay [9] concerns the target T2, cynomolgus MDR1 (Macaca fascicularis). The assay can be described thus: flow cytometry on cells expressing cynomolgus MDR1.
In assay [10] the target is T1, human MDR1 (multidrug resistance …). The assay can be described thus: cell-based or functional assay. This is another data set of the same source.
The target is the same in assay [11]. The assay can be described thus: flow cytometry, 293T cells stably expressing human ABCB1 (293T_ABCB1_OX).

Broadly, the EC50 is the concentration at which the effect is half-maximal.

Substitutions are numbered along the chain they refer to. Names and notes keep the numbering of the source. Values joined by “and” are separate entries in the source; they are usually repeats but may differ in a detail not shown here. Equal values may be shown once. Read-outs that look alike come from different tables or passages of the source.

B1: B1.129 (antibody, human IgG1, V domains shown)
VH: EVQLQQSGPELVKPGASVKMSCKASGYTFSTYVIHWVKQKPGQGLEWIGYIYPYNDYTKYNEKFKDKATLTSDKSSSTAYMEIRSLTSEDSAVYYCSRAYYGNLVGYGVDYWGQGTSVTVSS
VL: QIVLTQSPAILPASPGEKVTMTCRASSSVSFIYWYQQRPGSSPKPWIFATSNLASGVPARFSGSGSGTSYSLTISRVEAEDAATYYCHQWGSNLPTFGGGTKLEIK
notes: expressed with human IgG1 heavy and human kappa light constant regions; also called KNJY B1-129; KB1.129
As for B1, in assay [1], the “IC50 of vincristine on N6/ADR cells with antibody” value (“IC50 of vincristine” below) stood at 0.0132 nM. Further, the binding result in assay [2] was “binds”.

B2: KT14.5F9hu scFv-B1.261.hu1 (bispecific antibody, human IgG1, kappa)
scFv: not shown
heavy: EVQLQESGPGLVKPSETLSLTCTVSGFSLTSYGVHWVRQPPGKGLEWLVVIWSDGSTTYNSALKSRLTISKDNSKNQVSLKLSSVTAADTAVYYCARHGRWLLQRGGAMDYWGQGTMVTVSSASTKGPSVFPLAPSSKSTSGGTAALGCLVKDYFPEPVTVSWNSGALTSGVHTFPAVLQSSGLYSLSSVVTVPSSSLGTQTYICNVNHKPSNTKVDKRVEPKSCDKTHTCPPCPAPELLGGPSVFLFPPKPKDTLMISRTPEVTCVVVDVSHEDPEVKFNWYVDGVEVHNAKTKPREEQYNSTYRVVSVLTVLHQDWLNGKEYKCKVSNKALPAPIEKTISKAKGQPREPQVCTLPPSREEMTKNQVSLSCAVKGFYPSDIAVEWESNGQPENNYKTTPPVLDSDGSFFLVSKLTVDKSRWQQGNVFSCSVMHEALHNHYTQKSLSLSPGK
light: DVQMTQSPSSLSASVGDRVTITCRASQNVGSYIAWYQQKPGKSPKALIYSASYRSSGVPSRFSGSGAGTDFTLTISSLQPEDFATYFCQQYNSYPLTFGGGTKLEIKRTVAAPSVFIFPPSDEQLKSGTASVVCLLNNFYPREAKVQWKVDNALQSGNSQESVTEQDSKDSTYSLSSTLTLSKADYEKHKVYACEVTHQGLSSPVTKSFNRGEC
As to B2, the binding result with human CD47 [3] is on record as “binds”.

B3: KT14.B6H12hu scFv-B1.261.hu1 (bispecific antibody, human IgG1, kappa)
scFv: not shown
heavy: B2 heavy
light: B2 light
For the molecule B3, the binding result in the assay with human CD47 [3] was “binds”.

B4: B1.129.huH1-huL1(KV3) (antibody, human IgG1, V domains shown)
VH: EVQLVQSGAEVKKPGASVKVSCKASGYTFSTYVIHWVRQAPGQGLEWIGYIYPYNDYTKYNEKFKDRATLTSDKSTSTAYMELRSLRSDDTAVYYCSRAYYGNLVGYGVDYWGQGTTVTVSS
VL: EIVLTQSPATLSLSPGERATLSCRASSSVSFIYWYQQKPGQSPRPWIFATSNLASGVPARFSGSGSGTDYTLTISSLEPEDFAVYYCHQWGSNLPTFGGGTKLEIK
notes: Humanized B1.129; Human IgG1/kappa constant regions; also called B1.129.hz1
On to B4, for which the binding result in assay [4] and in assay [5] was “binds” in each case.

B5: B1.129.huH1-huL1(KV1) (antibody, human IgG1, V domains shown)
VH: B4 VH
VL: DIQLTQSPSSLSASVGDRVTITCRASSSVSFIYWYQQKPGKSPKPWIFATSNLASGVPSRFSGSGSGTDYTLTISSLQPEDFATYYCHQWGSNLPTFGGGTKLEIK
notes: Humanized B1.129; Human IgG1/kappa constant regions; also called B1.129.hz2
In the case of B5, the binding result in [5] and in assay [6] was “no binding” throughout.

B6: 15D3DD KT14KK MRK16v5 LC (bispecific antibody, human IgG1)
heavy 1: not shown
heavy 2: not shown
VL: DIVMTQTPLSSPVTLGQPASISCRSSQSIVYSNGNTYLEWYQQKPGQPPRLLIYKISNRFSGVPDRFSGSGAGTDFTLKISRVEAEDVGVYYCFQASHFPRTFGGGTKLEIK
B6: the binding result (in assay [7]; in the assay with human CD47 [8]) was “binds” in each case.

B7: KT14.5F9hu scFv-B1.28.hu13 (bispecific antibody, human IgG1, kappa)
scFv: not shown
heavy: EVQLVESGGGLVKPGGSLRLSCAASGFTFGLYTMSWVRQAPGKGLEWVATISSGGSNTYYPDSVKGRFTISRDNAKNSLYLQMNSLRAEDTAVYYCARYYRYDAWFAYWGQGTLVTVSSASTKGPSVFPLAPSSKSTSGGTAALGCLVKDYFPEPVTVSWNSGALTSGVHTFPAVLQSSGLYSLSSVVTVPSSSLGTQTYICNVNHKPSNTKVDKRVEPKSCDKTHTCPPCPAPELLGGPSVFLFPPKPKDTLMISRTPEVTCVVVDVSHEDPEVKFNWYVDGVEVHNAKTKPREEQYNSTYRVVSVLTVLHQDWLNGKEYKCKVSNKALPAPIEKTISKAKGQPREPQVCTLPPSREEMTKNQVSLSCAVKGFYPSDIAVEWESNGQPENNYKTTPPVLDSDGSFFLVSKLTVDKSRWQQGNVFSCSVMHEALHNHYTQKSLSLSPGK
light: EVVLTQSPATLSLSPGERATLSCRSSQNIVHSTGNTYLDWYQQKPGQSPRLLIYKVSNRFSGVPARFSGSGSGTDFTLTISSLEPEDFAVYYCFQGSHIPRTFGGGTKLEIKRTVAAPSVFIFPPSDEQLKSGTASVVCLLNNFYPREAKVQWKVDNALQSGNSQESVTEQDSKDSTYSLSSTLTLSKADYEKHKVYACEVTHQGLSSPVTKSFNRGEC
On to B7, for which the binding result with human CD47 [3] is “binds”.

B8: KT14.B6H12hu scFv-B1.28.hu13 (bispecific antibody, human IgG1, kappa)
scFv: not shown
heavy: B7 heavy
light: B7 light
As for B8, the binding result in the assay with human CD47 [3] is given as “binds”.

B9: B1.261 (antibody, human IgG1, V domains shown)
VH: QVQLKESGPGLVAPSQSLSITCTVSGFSLTSYGVHWVRQPPGKGLEWLVVIWSDGSTTYNSALKSRLSISKDNSKSQVFLKMNSLQIDDTAMYYCARHGRWLLQRGGAMDYWGQGTSVTVSS
VL: DVVMTQAPKFMSTSVGDRVSVTCRASQNVGSYIAWYQQKLGQSPKALIYSASYRCSGVPDRFTGSGAGTDFTLTIRNVQSEDLAEYFCQQYNSYPLTFGGGTKLEIK
notes: expressed with human IgG1 heavy and human kappa light constant regions; also called KNJY B1-261; KB1.261
In the case of B9, in assay [1], the “IC50 of vincristine” value was 0.0038 nM. For the same molecule, the binding result in [9] is recorded as “binds”.

B10: B1.28 (antibody, human IgG1, V domains shown)
VH: EVKLVESGGGLVKPGGSLKLSCAASGFTFGLYTMSWVRQTPERRLEWVATISSGGSNTYYPDSVKGRFTISRDNAKNNLFLQMNSLRSEDTALYYCARYYRYDAWFAYWGQGTLVTVSS
VL: DVLLTQTPLSLPVSLGDQASISCRSSQNIVHSTGNTYLDWYLQKPGQSPKLLIYKVSNRFSGVPDRFSGSGSGTDFTLKISRVEAEDLGVYFCFQGSHIPRTFGGGTKLEIK
notes: expressed with human IgG1 heavy and human kappa light constant regions; also called KNJY B1-28; KB1.28
In the case of B10, the “IC50 of vincristine” value in assay [1] is 3.34 nM and 2.87 nM. Moreover, the binding result in assay [5] is recorded as “binds”.

B11: MRK16 (antibody, V domains shown)
VH: B10 VH with K3I, G30S, L31S, R43K, S56G, F80Y, N84S, D103E, Y108S, S119A
VL: B10 VL with L4M, L9V, P12S, N28S, D39E, V56I, F92Y, G96A, I99F
Take B11: the “IC50 of vincristine” value in assay [10] worked out at 0.734 nM.

B12: 15D3DD KT14KK B1.28.huL2 LC (bispecific antibody, human IgG1)
heavy 1: not shown
heavy 2: not shown
VL: B10 VL with L3V, T7S, S14T, L15P, D17E, Q18P, K50Q, L88V, F92Y, G105Q
Consider B12, for which the binding result in assay [7] is listed as “binds”.

B13: 15D3 (antibody, V domains shown)
VH: EVKVVESGGVLVRPGGSLKLSCAASGFTFSRYTMSWVRQTPEKRLEWVATISSGGGNTYYPDSVKGRFTVSRDNAMSSLYLQMSSLRSEDTALYYCARYGAGDAWFAYWGQGTLVTVSS
VL: B10 VL with L4M, N28S, D39E, V83L, F92Y, I99F, K108R
notes: Known anti-MDR1 antibody; also called KPA01; 15D3 hybridoma
In the case of B13, in assay [10], the “IC50 of vincristine” value came out at 0.466 nM. Moreover, the EC50 in assay [11] worked out at 14.6 nM.

B14: BisAb-1 (15D3 HC-Hz1 DD hIgG1 / KT14 IgG1 KK / B1-28 VL humaniz) (bispecific antibody)
VH: EVQLVESGGVVVQPGGSLRLSCAASGFTFSRYTMSWVRQAPGKGLEWVATISSGGGQTYYPDSVKGRFTVSRDNSKNSLYLQMNSLRTEDTALYYCARYGAGDAWFAYWGQGTLVTVSS
heavy: not shown
VL: B10 VL with L3V, T7S, S14T, D17Q, Q18P, L42Q, K44R, K50R, L88V, G105Q
notes: The 15D3 Hz1 VH is fused to human IgG1 Fc with K392D and K409D (EU)
Regarding B14, the “IC50 of vincristine” value in assay [10] amounted to 0.0064 nM. This molecule also yielded an EC50 in assay [11] of 118 nM.

B15: B1.99 (antibody, human IgG1, V domains shown)
VH: EVQLVESGGALVKPGGSLKLSCAASGFTFSNYAMSWVRQTPERRLEWVATISSGGSYTYYPDSVKGRFTISRDNAKNTLYLQMSSLISEDTALYYCTRGYGNFAWFAYWGHGTLVTVSA
VL: B10 VL with L3V, L4M, A19V, N28S, T33Y, N35S, D39E, R101Y, I111L
B15: the “IC50 of vincristine” value in assay [1] worked out at 0.0619 nM.

B16: 15D3DD KT14KK B1.89v1 LC (bispecific antibody, human IgG1)
heavy 1: not shown
heavy 2: not shown
VL: B10 VL with L4M, N28T, T33N, D39E, N58K, F92Y, G96A, I99F
notes: also called 15D3DD/KT14KK/89v1
Turning to B16, the binding result (in assay [7]; with human CD47 [8]) was “binds” each time.

For the origin of these results see patent US20230203156A1 (WILLIAM ROBERT ARATHOON LIVING TRUST DATED AUGUST 29 2016, published 2023).
